Assay [1] addresses HLA-A*02:03. Nature of the assay: IEDB peptide-MHC binding, purified MHC/competitive/fluorescence; filed as Kd, often an IC50 or EC50 that approximates it; ≥ and ≤ were set here for values at or beyond the usual limits of such assays. Particulars: source organism: Human immunodeficiency virus 1.
In assay [2] the target is HLA-A*68:02. The assay is described as above. The settings on record: source organism: Human immunodeficiency virus 1.
Assay [3] concerns the target HLA-A*11:01. In words: IEDB peptide-MHC binding, purified MHC/competitive/fluorescence; ≥ and ≤ were set here for values at or beyond the usual limits of such assays.
Assay [4] concerns the target HLA-B*07:02. Described as above.
The target of assay [5] is HLA-B*08:01. The assay is described as above.
Assay [6] addresses HLA-A*02:01. The assay is described as above. Particulars: source organism: Zaire ebolavirus.
For assay [7], the target named is HLA-A*02:01. Nature of the assay: IEDB peptide-MHC binding, purified MHC/competitive/radioactivity; ≥ and ≤ were set here for values at or beyond the usual limits of such assays.
The target of assay [8] is HLA-C*08:02. Nature of the assay: IEDB peptide-MHC binding, purified MHC/direct/fluorescence; filed as Kd, often an IC50 or EC50 that approximates it; ≥ and ≤ were set here for values at or beyond the usual limits of such assays.
Assay [9] deals with HLA-B*27:03. In words: IEDB peptide-MHC binding, purified MHC/competitive/fluorescence; filed as Kd, often an IC50 or EC50 that approximates it; ≥ and ≤ were set here for values at or beyond the usual limits of such assays.
The target of assay [10] is HLA-B*39:01. Described as above.
Assay [11] has as its target HLA-B*46:01. Described as above.
Assay [12] deals with HLA-B*57:01. The description is as above.
Assay [13] deals with HLA-A*26:01. Described as above.
For assay [14], the target named is HLA-A*69:01. The assay is described as above. Particulars: source organism: Mus musculus.
The target of assay [15] is HLA-A*02:01. The assay is described as above.
For assay [16], the target named is HLA-B*18:01. Described as above.
Assay [17] has as its target HLA-B*51:01. Described as above.
In assay [18] the target is HLA-A*24:02. Nature of the assay: IEDB peptide-MHC binding, purified MHC/competitive/fluorescence; ≥ and ≤ were set here for values at or beyond the usual limits of such assays. Particulars: source organism: Zaire ebolavirus.
Assay [19] addresses HLA-A*26:02. Nature of the assay: IEDB peptide-MHC binding, purified MHC/direct/fluorescence; filed as Kd, often an IC50 or EC50 that approximates it; ≥ and ≤ were set here for values at or beyond the usual limits of such assays.
In assay [20] the target is HLA-A*26:01. The assay is described as above. Particulars: source organism: Influenza A virus (A/shorebird/Delaware Bay/277/2000(H9N7)).
Assay [21] deals with HLA-B*15:09. The description is as above. The settings on record: source organism: Vibrio vulnificus CMCP6.
In assay [22] the target is HLA-A*29:02. The assay is described as above. Particulars: source organism: Vibrio vulnificus CMCP6.
Assay [23] concerns the target HLA-B*48:01. The description is as above. The settings on record: source organism: Vibrio cholerae.
The target of assay [24] is HLA-B*40:01. The description is as above. Particulars: source organism: Vibrio cholerae.
The target of assay [25] is HLA-A*01:01. Described as above.
Assay [26] deals with HLA-A*02:12. Described as above. Particulars: source organism: Vibrio vulnificus CMCP6.
For assay [27], the target named is HLA-A*02:19. Described as above. Particulars: source organism: Vibrio vulnificus CMCP6.
Assay [28] has as its target HLA-A*31:01. The description is as above. The settings on record: source organism: Vibrio cholerae.
The target in assay [29] is HLA-B*07:02. The assay is described as above. Particulars: source organism: Vibrio vulnificus CMCP6.
Assay [30] deals with HLA-A*03:01. Described as above. The settings on record: source organism: Vibrio cholerae.
Assay [31] concerns the target HLA-B*08:01. Described as above. Particulars: source organism: Vibrio vulnificus CMCP6.
The target of assay [32] is HLA-B*58:01. Described as above. The settings on record: source organism: Vibrio vulnificus CMCP6.
Assay [33] concerns the target HLA-A*69:01. The description is as above. The settings on record: source organism: Vibrio cholerae.
Assay [34] deals with HLA-B*27:05. The assay is described as above. Particulars: source organism: Vibrio cholerae.
The target of assay [35] is HLA-B*18:01. Described as above. The settings on record: source organism: Vibrio cholerae.
Assay [36] deals with HLA-B*51:01. Described as above. Particulars: source organism: Vibrio vulnificus CMCP6.
Assay [37] deals with HLA-A*11:01. Nature of the assay: IEDB peptide-MHC binding, purified MHC/competitive/fluorescence; filed as Kd, often an IC50 or EC50 that approximates it; ≥ and ≤ were set here for values at or beyond the usual limits of such assays. The settings on record: source organism: Vibrio cholerae V52.
In assay [38] the target is HLA-A*30:01. The assay is described as above. The settings on record: source organism: Vibrio cholerae V52.
In assay [39] the target is HLA-A*02:06. Described as above. Particulars: source organism: Vibrio cholerae V52.
The target in assay [40] is HLA-B*15:17. Described as above.
Assay [41] concerns the target HLA-B*15:01. Described as above.
The target in assay [42] is HLA-A*03:01. In words: IEDB peptide-MHC binding, purified MHC/competitive/fluorescence; ≥ and ≤ were set here for values at or beyond the usual limits of such assays. The settings on record: source organism: Variola virus.
[43] abbreviates: source organism: Zaire ebolavirus.
[44] abbreviates: source organism: Vibrio cholerae V52.

Regarding EELKSLYNTI, the dissociation constant Kd in assay [1] is at least 20 µM; in assay [2], 1780 nM.

Regarding GRRTRREAI, the IC50 in assay [3] (setting [43]) is at least 297 µM; in [4] (setting [43]) it was at least 102 µM; in assay [5] (setting [43]), 7.09 µM; in assay [6], at least 83.2 µM.

Turning to ILCGTCLIV, the IC50 in assay [7] (source organism: Homo sapiens) came to 192 nM.

IMDKNIIL: the IC50 in assay [7] (source organism: Influenza A virus (A/Puerto Rico/8/1934(H1N1))) was 21000 nM.

For LVDENQSWY, the Kd in assay [8] (source organism: Mus musculus) was at least 20000 nM; in assay [9] (source organism: Mus musculus), at least 20 µM; in assay [10] (source organism: Mus musculus) it was at least 20 µM; in assay [11] (source organism: Mus musculus), at least 20 µM; in assay [12] (source organism: Mus musculus) it was at least 20 µM; in assay [13] (source organism: Mus musculus), at least 20 µM. In addition, the Kd in [14], in assay [15] (source organism: Mus musculus), in assay [16] (source organism: Mus musculus) and in assay [17] (source organism: Mus musculus) was at least 20 µM each time.

For the sequence MVTLRKERL, the IC50 is 10.4 µM in assay [4] (setting [43]), 13.9 µM in assay [5] (setting [43]), 4.33 µM in assay [18] and 18.8 µM in assay [6].

With RLPRIFCSC, the IC50 in [7] (source organism: Homo sapiens) is 1980 nM.

In the case of SLSHYFTLV, in assay [7] (source organism: Trypanosoma cruzi), the IC50 was found to be 1.6 nM.

For TTAKAMEQM, the Kd in [19] (source organism: Influenza A virus(A/swine/Shandong/fZC/2003(H9N2))) was 2 nM; in assay [20], 48.9 nM.

For TTILGLLPM, the Kd was 7.7 µM in assay [21]; 16 nM in assay [22]; at least 20 µM in [23]; 188 nM in assay [24]; at least 20000 nM in [25] (source organism: Vibrio cholerae); at least 20 µM in [26]. Moreover, the Kd in assay [19] (source organism: Vibrio vulnificus CMCP6) is at most 1 nM; in assay [27], at least 20 µM; in assay [28] it was at least 20 µM; in [29], at least 20 µM; in assay [30], at least 20 µM; in [31], at least 20 µM. Besides, the Kd is 329 nM in assay [32]; 1.6 nM in [33]; at least 20 µM in [34]; 12 nM in [35]; at least 20 µM in [36]; at least 20 µM in [37]. Further, the Kd stood at 0.618 µM in assay [10] (setting [44]); 677 nM in [38]; 3.58 µM in assay [12] (setting [44]); 5.7 nM in assay [39]; 38.7 nM in assay [40] (setting [44]); 308 nM in assay [41] (setting [44]). Moreover, the Kd in [15] (setting [44]) was at least 20 µM.

With VARKHHTKI, the 50% inhibitory concentration (IC50) in assay [3] (source organism: Variola virus) was at least 70.5 µM; in [4] (source organism: Variola virus) it was 10.5 µM; in assay [42], at least 110 µM; in [5] (source organism: Variola virus), at least 348 µM.

As to WTDLFDNKV, the Kd in [25] (source organism: Homo sapiens) is 2 nM; in assay [8] (source organism: Homo sapiens) it was 254 nM; in [9] (source organism: Homo sapiens), at least 20 µM; in assay [10] (source organism: Homo sapiens), at least 20 µM; in assay [11] (source organism: Homo sapiens) it was at least 20 µM; in [12] (source organism: Homo sapiens), at least 20 µM. Besides, the Kd in [13] (source organism: Homo sapiens) is at least 20 µM; in assay [40] (source organism: Homo sapiens) it was at least 20000 nM; in [41] (source organism: Homo sapiens), at least 20000 nM; in [15] (source organism: Homo sapiens) it was at least 20 µM; in [16] (source organism: Homo sapiens), at least 20 µM; in [17] (source organism: Homo sapiens), at least 20 µM.

(Values after the Immune Epitope Database (IEDB).)
